In paper PMC5832979, “Ligand complex structures of L‐amino acid oxidase/monooxygenase from Pseudomonas sp. AIU 813 and its conformational change” (FEBS Open Bio, 2018):

Experiments:
L-AAO/MOG [1] = molecular target: T1, L-AAO/MOG (Pseudomonas sp. AIU 813, UniProt W6JQJ6); experiment: X-ray crystal structure, […] Å; format: binding; conditions: bound cofactor; redox state mixed or uncertain; L-Lys complex
T1 construct: gene laao; N-terminally His-tagged, pET15b-laao/mog, expressed in E. coli; homodimer with FAD
T1 sequence (W6JQJ6 1-560): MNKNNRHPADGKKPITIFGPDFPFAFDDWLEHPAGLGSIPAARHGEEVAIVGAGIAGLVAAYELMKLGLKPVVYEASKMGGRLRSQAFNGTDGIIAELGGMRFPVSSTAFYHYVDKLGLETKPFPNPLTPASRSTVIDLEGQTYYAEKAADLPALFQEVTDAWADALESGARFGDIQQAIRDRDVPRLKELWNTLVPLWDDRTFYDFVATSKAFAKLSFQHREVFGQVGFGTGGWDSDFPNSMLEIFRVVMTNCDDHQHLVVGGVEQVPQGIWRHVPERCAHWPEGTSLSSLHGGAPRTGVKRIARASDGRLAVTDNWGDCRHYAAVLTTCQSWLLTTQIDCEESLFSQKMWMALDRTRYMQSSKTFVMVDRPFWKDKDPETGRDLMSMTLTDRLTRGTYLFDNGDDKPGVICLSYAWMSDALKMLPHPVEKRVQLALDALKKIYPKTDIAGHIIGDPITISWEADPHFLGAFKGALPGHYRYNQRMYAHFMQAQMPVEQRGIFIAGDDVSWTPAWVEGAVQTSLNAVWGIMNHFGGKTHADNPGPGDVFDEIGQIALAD

L-AAO/MOG [2] = molecular target: T1, L-AAO/MOG; experiment: X-ray crystal structure, soaking, […] Å; format: binding; conditions: active site, also second site at dimer interface; 10 mM soak; modelled as unreacted substrate, redox state uncertain
L-AAO/MOG [3] = molecular target: T1, L-AAO/MOG; experiment: X-ray crystal structure, soaking, […] Å; format: binding; conditions: active site, also second site; 20 mM soak; density relatively ambiguous; modelled as unreacted substrate
NCCCC[C@H](N)C(=O)O = system: T2, NCCCC[C@H](N)C(=O)O; experiment: purified protein; format: biochemical, Pseudomonas sp. AIU 813; conditions: 100 mM potassium phosphate pH 7.0, 30 °C
T2 construct: N-terminally His-tagged, pET15b-laao/mog, expressed in E. coli; homodimer with FAD

L-AAO/MOG [4] = molecular target: T1, L-AAO/MOG; experiment: X-ray crystal structure, soaking, […] Å; format: binding; conditions: active site, also second site; 20 mM soak; density relatively ambiguous; modelled as unreacted substrate; remark: listed apart in the source
N=C(N)NCCC[C@H](N)C(=O)O = system: T3, N=C(N)NCCC[C@H](N)C(=O)O; experiment: purified protein; format: biochemical, Pseudomonas sp. AIU 813; conditions: oxidase reaction, borate-NaOH pH 9.0, 30 °C, pH 9.0
T3 construct: N-terminally His-tagged, pET15b-laao/mog, expressed in E. coli; homodimer with FAD

purified protein [5] = substrate: NCCC[C@H](N)C(=O)O; experiment: purified protein; conditions: borate-NaOH pH 9.0, 30 °C
purified protein [6] = substrate: NCCCC[C@H](N)C(=O)O; experiment: purified protein; format: biochemical, Pseudomonas sp. AIU 813; conditions: 100 mM potassium phosphate pH 7.0, 30 °C, pH 7.0
purified protein [7] = substrate: N=C(N)NCCC[C@H](N)C(=O)O; experiment: purified protein; format: biochemical, Pseudomonas sp. AIU 813; conditions: borate-NaOH pH 9.0, 30 °C, pH 9.0
[8] = molecular target: the molecule itself; experiment: crystal structure; sitting-drop vapor diffusion at 20 °C, 20% PEG3350 and 0.15 M DL-malic acid pH 7.0; crystals soaked with 10 mM L-Lys, 20 mM L-Orn or 20 mM L-Arg; tetramer (two biological dimers) in the asymmetric unit

For Cc1cc2nc3c(=O)[nH]c(=O)nc-3n(C[C@H](O)[C@H](O)[C@H](O)COP(=O)(O)OP(=O)(O)OC[C@H]3O[C@@H](n4cnc5c(N)ncnc54)[C@H](O)[C@@H]3O)c2cc1C [FAD], the “X-ray crystal structure, 2.10 Å” value (L-AAO/MOG [1]) was “FAD and L‐Lys molecules are shown as yellow and magenta sticks”.

For NCCCC[C@H](N)C(=O)O [L-Lys], the “X-ray crystal structure, soaking, 2.10 Å” value (L-AAO/MOG [2]) was “electron density map for a L‐Lys molecule was clearly observed in the substrate binding pocket”.

N=C(N)NCCC[C@H](N)C(=O)O [L-Arg] was tested, and the “X-ray crystal structure, soaking, 2.30 Å” value (L-AAO/MOG [3]) was “The structures of L‐AAO/MOG complexed with either L‐Lys, L‐Orn, or L‐Arg were determined”.

“L-AAO/MOG (Pseudomonas sp. AIU 813; D238E)” was tested, and the Km (NCCCC[C@H](N)C(=O)O; monooxygenase reaction) was 43 ± 1 µM, the kcat (NCCCC[C@H](N)C(=O)O; monooxygenase reaction) was 8.1 ± 0.6 s⁻¹ and the kcat/Km (NCCCC[C@H](N)C(=O)O; monooxygenase reaction) was 190000 ± 10000 M⁻¹ s⁻¹. It also gave a Km (NCCCC[C@H](N)C(=O)O; oxidase reaction) of 18 ± 6 µM, a kcat (NCCCC[C@H](N)C(=O)O; oxidase reaction) of 2.3 ± 0.3 s⁻¹ and a kcat/Km (NCCCC[C@H](N)C(=O)O; oxidase reaction) of 130000 ± 10000 M⁻¹ s⁻¹.

For NCCC[C@H](N)C(=O)O [L-Orn], the “X-ray crystal structure, soaking, 2.00 Å” value (L-AAO/MOG [4]) was “The structures of L‐AAO/MOG complexed with either L‐Lys, L‐Orn, or L‐Arg were determined”.

“L-AAO/MOG (Pseudomonas sp. AIU 813; D238A)” was tested, and the Km (NCCCC[C@H](N)C(=O)O; monooxygenase reaction) was 260 ± 20 µM, the kcat (NCCCC[C@H](N)C(=O)O; monooxygenase reaction) was 2.7 ± 0.4 s⁻¹ and the kcat/Km (NCCCC[C@H](N)C(=O)O; monooxygenase reaction) was 10000 ± 1000 M⁻¹ s⁻¹. It also gave a Km (NCCCC[C@H](N)C(=O)O; oxidase reaction, pH 7.0) of 610 ± 50 µM, a kcat (NCCCC[C@H](N)C(=O)O; oxidase reaction, pH 7.0) of 0.5 ± 0.03 s⁻¹ and a Km (N=C(N)NCCC[C@H](N)C(=O)O) of 410 ± 10 µM. The kcat (N=C(N)NCCC[C@H](N)C(=O)O) was 0.1 ± 0.02 s⁻¹ and the kcat/Km (N=C(N)NCCC[C@H](N)C(=O)O) was 240 ± 60 M⁻¹ s⁻¹.

Work on “L-AAO/MOG (Pseudomonas sp. AIU 813; D238F)” yielded a Km (NCCCC[C@H](N)C(=O)O; monooxygenase reaction) of 72 ± 3 µM, a kcat (NCCCC[C@H](N)C(=O)O; monooxygenase reaction) of 0.8 ± 0.04 s⁻¹ and a kcat/Km (NCCCC[C@H](N)C(=O)O; monooxygenase reaction) of 11000 ± 1000 M⁻¹ s⁻¹. It also gave a Km (NCCCC[C@H](N)C(=O)O; oxidase reaction, pH 7.0) of 49 ± 9 µM, a kcat (NCCCC[C@H](N)C(=O)O; oxidase reaction, pH 7.0) of 0.17 ± 0.01 s⁻¹ and a kcat/Km (NCCCC[C@H](N)C(=O)O; oxidase reaction, pH 7.0) of 3500 ± 200 M⁻¹ s⁻¹. It also gave a Km (N=C(N)NCCC[C@H](N)C(=O)O) of 80 ± 18 µM, a kcat (N=C(N)NCCC[C@H](N)C(=O)O) of 0.1 ± 0.01 s⁻¹ and a kcat/Km (N=C(N)NCCC[C@H](N)C(=O)O) of 1300 ± 100 M⁻¹ s⁻¹.

B1: L‐Amino acid oxidase/monooxygenase from Pseudomonas sp. AIU 813 (enzyme)
chain: MNKNNRHPADGKKPITIFGPDFPFAFDDWLEHPAGLGSIPAARHGEEVAIVGAGIAGLVAAYELMKLGLKPVVYEASKMGGRLRSQAFNGTDGIIAELGGMRFPVSSTAFYHYVDKLGLETKPFPNPLTPASRSTVIDLEGQTYYAEKAADLPALFQEVTDAWADALESGARFGDIQQAIRDRDVPRLKELWNTLVPLWDDRTFYDFVATSKAFAKLSFQHREVFGQVGFGTGGWDSDFPNSMLEIFRVVMTNCDDHQHLVVGGVEQVPQGIWRHVPERCAHWPEGTSLSSLHGGAPRTGVKRIARASDGRLAVTDNWGDCRHYAAVLTTCQSWLLTTQIDCEESLFSQKMWMALDRTRYMQSSKTFVMVDRPFWKDKDPETGRDLMSMTLTDRLTRGTYLFDNGDDKPGVICLSYAWMSDALKMLPHPVEKRVQLALDALKKIYPKTDIAGHIIGDPITISWEADPHFLGAFKGALPGHYRYNQRMYAHFMQAQMPVEQRGIFIAGDDVSWTPAWVEGAVQTSLNAVWGIMNHFGGKTHADNPGPGDVFDEIGQIALAD
notes: L-amino acid oxidase/monooxygenase (L-AAO/MOG), Pseudomonas sp; AIU 813; FAD-dependent; expression plasmid pET15b-laao/mog; Carries FAD; The biological dimer is chains A-C and B-D of the crystal; also called L‐AAO/MOG; wild‐type enzyme
B1 was tested, and the Km (purified protein [5]; monooxygenase reaction) was 33 ± 1 µM, the kcat (purified protein [5]; monooxygenase reaction) was 6.7 s⁻¹ and the kcat/Km (purified protein [5]; monooxygenase reaction) was 200000 M⁻¹ s⁻¹. The Km (purified protein [5]; oxidase reaction) was 22 ± 4 µM, the kcat (purified protein [5]; oxidase reaction) was 1.5 s⁻¹ and the kcat/Km (purified protein [5]; oxidase reaction) was 68000 M⁻¹ s⁻¹. For the same molecule, the Km (purified protein [6]; monooxygenase reaction) was 61 ± 6 µM, the kcat (purified protein [6]; monooxygenase reaction) was 4.5 ± 0.1 s⁻¹ and the kcat/Km (purified protein [6]; monooxygenase reaction) was 74000 ± 5000 M⁻¹ s⁻¹. For the same molecule, the Km (purified protein [6]; oxidase reaction) was 27 ± 3 µM, the kcat (purified protein [6]; oxidase reaction) was 0.8 ± 0.09 s⁻¹ and the kcat/Km (purified protein [6]; oxidase reaction) was 30000 ± 1000 M⁻¹ s⁻¹. It also gave a Km (purified protein [7]; monooxygenase reaction) of 67 ± 5 µM, a kcat (purified protein [7]; monooxygenase reaction) of 1.6 ± 0.2 s⁻¹ and a kcat/Km (purified protein [7]; monooxygenase reaction) of 24000 ± 1000 M⁻¹ s⁻¹. For the same molecule, the Km (purified protein [7]; oxidase reaction) was 48 ± 1 µM, the kcat (purified protein [7]; oxidase reaction) was 0.41 ± 0.02 s⁻¹ and the kcat/Km (purified protein [7]; oxidase reaction) was 8500 ± 650 M⁻¹ s⁻¹. B1: binds [8].
